Assay in all cases: BLI (Octet), F on anti-HIS tip, 20 nM mAb
(Biolayer interferometry detects binding as a change in optical thickness at a sensor tip.)

For assay [1], the target named is T1, RSV F protein mutant pXCS752 (RSV A2, UniProt P03420 26-109).
T1 chain 1: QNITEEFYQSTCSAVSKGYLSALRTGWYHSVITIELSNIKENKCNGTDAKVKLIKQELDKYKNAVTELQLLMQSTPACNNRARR
T1 chain 2: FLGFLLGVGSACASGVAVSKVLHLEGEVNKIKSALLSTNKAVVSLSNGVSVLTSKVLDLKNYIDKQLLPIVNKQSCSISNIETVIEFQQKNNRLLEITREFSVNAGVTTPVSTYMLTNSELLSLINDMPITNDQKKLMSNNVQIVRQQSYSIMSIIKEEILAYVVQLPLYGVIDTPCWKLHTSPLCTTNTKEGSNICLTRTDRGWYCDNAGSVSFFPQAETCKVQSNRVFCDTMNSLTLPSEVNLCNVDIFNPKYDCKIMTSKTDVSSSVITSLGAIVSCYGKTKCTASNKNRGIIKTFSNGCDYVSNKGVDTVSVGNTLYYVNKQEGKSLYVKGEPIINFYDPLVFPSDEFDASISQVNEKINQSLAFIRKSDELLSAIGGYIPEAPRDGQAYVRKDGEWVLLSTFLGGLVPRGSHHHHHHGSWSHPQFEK

In assay [2] the target is RSV F protein mutant pXCS781 (RSV A2, UniProt P03420 26-109).
Assay [3] concerns the target RSV F protein mutant pXCS782 (RSV A2, UniProt P03420 26-109).
For assay [4], the target named is T2, RSV F protein mutant pXCS827 (RSV A2, UniProt P03420 26-109).
T2 chain 1: T1 chain 1
T2 chain 2: T1 chain 2 with S54I, I160V

In assay [5] the target is T3, RSV F protein mutant pXCS880 (RSV A2, UniProt P03420 26-109).
T3 chain 1: T1 chain 1 with S30C, C78T
T3 chain 2: T1 chain 2 with L6C, C12I, L52C, S54I, I160V, N235C, D350S, E351Q, D353S

The target in assay [6] is T4, RSV F protein mutant pXCS882 (RSV A2, UniProt P03420 26-109).
T4 chain 1: T1 chain 1 with S30C, C78T
T4 chain 2: T1 chain 2 with L6C, C12I, L52C, S54I, N235C, D350S, E351Q, D353S

The target in assay [7] is T5, RSV F protein mutant pXCS892 (RSV A2, UniProt P03420 26-109).
T5 chain 1: T1 chain 1 with S30C, C78T
T5 chain 2: T1 chain 2 with C12I, L52C, S54I

Changes are numbered by the printed parent chain.

B1: AM22 (antibody, V domains shown)
VH: QVQLVQSGAEVKKPGATVKVSCKISGHTLIKLSIHWVRQAPGKGLEWMGGYEGEVDEIFYAQKFQHRLTVIADTATDTVYMELGRLTSDDTAVYFCGTLGVTVTEAGLGIDDYWGQGTLVTVSS
VL: EIVLTQSPGTLSLSPGERATLSCRASQIVSRNHLAWYQQKPGQAPRLLIFGASSRATGIPVRFSGSGSGTDFTLTINGLAPEDFAVYYCLSSDSSIFTFGPGTKVDFK
As for B1, the “Response (nm shift)” value amounted to 0.234 nm in assay [1]; 0.423 nm in assay [2]; 0.222 nm in assay [3]; 0.45 nm in assay [4]; 0.213 nm in assay [5]; 0.219 nm in assay [6]. Further, the “Response (nm shift)” value in assay [7] came to 0.542 nm.

B2: MPE8 (antibody, V domains shown)
VH: EVQLVESGGGLVKPGGSLRLSCAASGFTFSSYSMNWVRQAPGKGLEWVSSISASSSYSDYADSAKGRFTISRDNAKTSLFLQMNSLRAEDTAIYFCARARATGYSSITPYFDIWGQGTLVTVSS
VL: QSVVTQTPSVSGAPGQRVTISCTGSSSNIGAGYDVHWYQQLPGTAPKLLIYDNNNRPSGVPDRFSASKSGTSASLAITGLQAEDEADYYCQSYDRNLSGVFGTGTKVTVL
notes: also called MPEG
Turning to B2, the “Response (nm shift)” value in assay [1] stood at 0.703 nm; in assay [2], 0.876 nm; in assay [3], 0.513 nm; in assay [4], 0.88 nm; in assay [5], 0.684 nm; in assay [6] it was 0.691 nm. The “Response (nm shift)” value in assay [7] came out at 1.03 nm.

For the origin of these results see US20230218738A1 (Pfizer, published 2023).
